Paper doi:10.1101/2021.12.08.471876

Molecular target: purified recombinant GRP78 protein (GRP78-His) (human) (UniProt P11021)
Assay: ITC

purified recombinant GRP78 protein (GRP78-His) (human), sequence (P11021 19-654): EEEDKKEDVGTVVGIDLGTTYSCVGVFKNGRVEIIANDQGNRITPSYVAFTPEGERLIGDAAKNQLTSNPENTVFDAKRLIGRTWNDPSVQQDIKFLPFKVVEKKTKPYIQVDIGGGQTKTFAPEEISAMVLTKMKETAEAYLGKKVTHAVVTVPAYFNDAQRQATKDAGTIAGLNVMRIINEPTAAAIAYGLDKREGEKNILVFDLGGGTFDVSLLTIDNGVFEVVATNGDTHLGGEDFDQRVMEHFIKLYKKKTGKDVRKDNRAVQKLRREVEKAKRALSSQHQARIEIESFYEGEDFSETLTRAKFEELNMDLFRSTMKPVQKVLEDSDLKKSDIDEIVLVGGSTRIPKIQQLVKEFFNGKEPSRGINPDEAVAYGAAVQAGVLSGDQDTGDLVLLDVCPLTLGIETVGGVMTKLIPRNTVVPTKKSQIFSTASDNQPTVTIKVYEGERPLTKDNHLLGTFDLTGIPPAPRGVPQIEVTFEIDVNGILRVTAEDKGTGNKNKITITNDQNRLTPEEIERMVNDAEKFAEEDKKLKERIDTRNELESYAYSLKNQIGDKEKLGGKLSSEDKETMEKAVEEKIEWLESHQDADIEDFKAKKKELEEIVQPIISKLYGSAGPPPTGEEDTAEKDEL
HBV particles, sequence (P03146 whole entry, looked up): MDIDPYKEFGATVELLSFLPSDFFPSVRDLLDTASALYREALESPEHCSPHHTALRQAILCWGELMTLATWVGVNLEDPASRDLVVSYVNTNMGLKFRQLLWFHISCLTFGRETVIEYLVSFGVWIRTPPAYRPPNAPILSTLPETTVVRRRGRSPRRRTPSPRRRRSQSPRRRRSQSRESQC
HBV particles, sequence (P03138 whole entry, looked up): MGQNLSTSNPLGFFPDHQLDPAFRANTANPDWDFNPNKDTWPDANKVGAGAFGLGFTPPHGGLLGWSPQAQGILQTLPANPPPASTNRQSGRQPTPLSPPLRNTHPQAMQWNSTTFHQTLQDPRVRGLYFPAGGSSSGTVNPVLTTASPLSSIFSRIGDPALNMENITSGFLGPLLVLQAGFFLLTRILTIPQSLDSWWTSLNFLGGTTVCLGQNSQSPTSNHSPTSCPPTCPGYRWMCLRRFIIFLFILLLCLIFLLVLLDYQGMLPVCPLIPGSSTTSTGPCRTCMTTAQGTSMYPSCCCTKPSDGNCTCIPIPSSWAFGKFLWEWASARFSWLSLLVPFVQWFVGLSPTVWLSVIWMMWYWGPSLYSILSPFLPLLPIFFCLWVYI

Substance: HBV particles (from UniProt P03138;P03146) (complex)
- Kd: 75.6 µM
